{
  "source": "patent US20040103447A1",
  "about": "“Schizophrenia-like mental disease model animal, method of constructing the same and use thereof” (priority 2001, published 2004)",
  "key": {"SD rats [1]": {"tested_on": "SD rats", "test": "Prepulse inhibition (PPI) in startle response after neonatal subcutaneous administration", "type": "in vivo, rat", "conditions": "75 db prepulse, 120 db pulse after 100 ms, 1.0 mg/kg s.c. 10 times from 2 days after birth, compared to cytochrome-C group", "from_the_text": "The prepulse inhibition in startle response is a test for perception-response ability using a startle response, which can be commonly evaluated in human and animals, as an index. This test is characterized in that abnormalities in attention and ability to process information in brain, which are considered to be the main disease state of schizophrenia, can be scientifically and objectively evaluated. The test itself is a measurement of decrease in a fright startle response to a big sound, which is attributable to the previous application of a weak sound stimulus (prepulse) of the level incapable of causing a fright startle response, 30-150 mSec before causing a fright startle response by making a noise of about 120 db. The decrease produced by the prepulse is called a prepulse inhibition, which is known to indicate abnormal decrease in schizophrenia patients and schizophrenia animal models (Braff D. L., Geyer M. A., Arch. Gen. Psychiatry, 47, 181-188, 1990).\nAs the animal, SD rats (Japan SLC) were used from 2 days after birth. As a reagent, human recombinant interleukin 1α and cytochrome-C (Sigma) were each dissolved in physiological saline at 40 μg/mL and used. […] From 21 days after birth, startle response intensity and prepulse inhibition were measured with an apparatus of measuring startle response of small animal (San Diego Instruments). […]"}, "SD rats [2]": {"tested_on": "SD rats", "test": "Startle response intensity to 120 db sound after neonatal subcutaneous administration", "type": "in vivo, rat", "conditions": "1.0 mg/kg s.c. 10 times from 2 days after birth, compared to cytochrome-C administration group", "method": "As the animal, SD rats (Japan SLC) were used from 2 days after birth. As a reagent, human recombinant interleukin 1α and cytochrome-C (Sigma) were each dissolved in physiological saline at 40 μg/mL and used. The reagents were subcutaneously administered 10 times in total (up to 11 days after birth) into the neck at 25 μL (each 1.0 mg/kg) per 1 g of rat body weight […] from 2 days after birth. From 21 days after birth, startle response intensity and prepulse inhibition were measured with an apparatus of measuring startle response of small animal (San Diego Instruments). That is, as a sensory stimulus to induce a startle response, a sound stimulation was used, and as a prepulse stimulation, a sound pressure stimulus of 75 db was given, which was 5 db higher than the environmental noise (background noise) level. After 100 milli-seconds, a pulse stimulus of a sound pressure of 120 db was given. The ratio of decrease in the startle response when prepulse was combined to the startle response with 120 db alone was considered as the prepulse inhibition (PPI)."}},
  "data": [
    {"molecule": "IL-1α: human recombinant interleukin 1α, a cytokine, dissolved in physiological saline and administered to neonatal rats to induce the model (protein, UniProt P01583 113-271, looked up) Interleukin-1 alpha: SAPFSFLSNVKYNFMRIIKYEFILNDALNQSIIRANDQYLTAAALHNLDEAVKFDMGAYKSSKDDAKITVILRISKTQLYVTAQDEDQPVLLKEMPEIPKTITGSETNLLFFWETHGTKNYFTSVAHPNLFIATKQDYWVCLAGGPPSITDFQILENQA", "values": [
      {"measurement": "prepulse inhibition", "setting": "SD rats [1]; 22 days after birth, FIG. 2B", "value": "such abnormality was not found"},
      {"measurement": "prepulse inhibition", "setting": "SD rats [1]; 60 days after birth, p<0.05, FIG. 2A", "value": "significant decrease"},
      {"measurement": "intensity of startle response to the sound pressure of 120 db", "setting": "SD rats [2]; 22 days after birth, FIG. 1B", "value": "such abnormality was not found"},
      {"measurement": "intensity of startle response to the sound pressure of 120 db", "setting": "SD rats [2]; 60 days after birth, FIG. 1A", "value": "significant increase"}
    ]}
  ]
}
